Measured values as given in paper PMC8168904, “The Trypanosoma brucei subpellicular microtubule array is organized into functionally discrete subdomains defined by microtubule associated proteins” (PLoS Pathogens, 2021).

How the values were obtained:
[1] = molecular target: Taxol-stabilized bovine microtubules labeled with Cy5 (bovine) (UniProt Q6B856); assay: not stated; (the row names no known assay)
[2] = molecular target: T1, mNeonGreen-PAVE1 (Posterior And Ventral Edge protein 1), tagged at both endogenous alleles (T. brucei (endogenous locus, 427 strain), UniProt Q581X9 1-421); assay: affinity purification with mass spectrometry; mNeonGreen-PAVE1 captured from sonicated, clarified T. brucei lysate on magnetic mNeonGreen-Trap nanobody beads, 1 hr 4°C, 6 washes; on-bead tryptic digest and LC-MS/MS, and silver-stained SDS-PAGE of the eluate; WT 427 cells as control; settings: partners not purified
T1 construct: PAVE1, Trypanosoma brucei, TriTrypDB Tb927.8.2030; expressed from the endogenous locus with an N-terminal tag; also called mNG-PAVE1; dET-mNeonGreen-PAVE1; source: endogenously tagged at both alleles, T. brucei 427 procyclic cells, in sonicated and clarified lysate; not shown: mNeonGreen, N-terminal, kept
T1 sequence (looked up): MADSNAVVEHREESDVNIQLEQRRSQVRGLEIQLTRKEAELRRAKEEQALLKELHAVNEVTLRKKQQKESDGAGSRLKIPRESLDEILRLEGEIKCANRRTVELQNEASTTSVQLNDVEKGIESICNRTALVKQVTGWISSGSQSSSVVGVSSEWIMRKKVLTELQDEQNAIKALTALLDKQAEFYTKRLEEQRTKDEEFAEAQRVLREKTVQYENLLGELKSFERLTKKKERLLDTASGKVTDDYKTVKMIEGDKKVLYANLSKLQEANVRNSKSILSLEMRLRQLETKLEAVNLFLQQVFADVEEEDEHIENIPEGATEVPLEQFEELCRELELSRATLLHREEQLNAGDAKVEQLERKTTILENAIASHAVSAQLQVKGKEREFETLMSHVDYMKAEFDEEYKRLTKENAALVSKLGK

| Molecule | time that pre-seeded patches remained after wash-out [1] [min] | stoichiometry N [2] |
| --- | --- | --- |
| PAVE complex (mNeonGreen-PAVE1 with Strep-PAVE2) | > 20 |  |
| PAVE2 (Tb927.9.11540), endogenous (natural protein, T. brucei (endogenous in 427 cells), UniProt Q38DN4 1-438, looked up, PAVE2, Trypanosoma brucei, TriTrypDB Tb927.9.11540, predicted MW 51 kDa; also called uncharacterized protein Tb927.9.11540; source: endogenous, T. brucei 427 lysate (mNeonGreen-PAVE1 cells)) MADVSADSDAQVELERLNDVIDKYTCQVEHIDNLLQELEEENNSDSVSRQIAEYQSALESHPENIPAEDALEVITRLENTLKIVQRRNHLLEKENGTQNRLLEERSNVLLNATKTFDHIVDVTGWHDKFLFDAEDLRSKVADIREMSNIEAVVQKELRVAQGIIKKKEAALRQLEELVEQGKEQEAVLNNVYNDIRVKERDCSEVEMQLVRLRKSVAKTDEALAVFDLHNQNASLAYMESDRDYLRDSVAEMKSTTRRQDNVIKAQLTRQQQLQTRLDVIMKSLREMKLDKKYERNIPKSALVPSASREEPEDVSKILPESECIPVPTYRLLHKNNEMLRVIVMRKNMLVLEKNAVIEALEAGLAKYGSALITTYKEQQDLRQNKDMELIELMDDLQQQHSNYLEKLEELRLQNAALKKKMYRSTRQHAPLKGTRPMR |  | ~1 |
